Experimental data: the supplement of paper PMC7125110
± gives the standard error. For part of these data: This sample holds only a part of the variants without activity.

B1: glmS ribozyme (parent)
chain: AUAAAAGCGCCAGAACUACAGAAAUGUAGUUGACGAGGAGGAGGUUUAUCGAAUUUUCGGCGGAUGCCUCCAAA

Columns and labels:
Details in all cases: with glucosamine-6-phosphate
[1] = variants of: B1; assay: kcat; higher = faster cleavage; RNA array
Outline: (§1)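 Using a hybridised Cy3 probe at 37 °C, barcoded ribozyme variants transcribed in situ by E. coli RNA polymerase on sequenced MiSeq chips were monitored across tiles imaged over ~14 h. The flow contained glucosamine-6-phosphate from 40 μM to 10 mM in HEPES/KCl/Mg(OAc)2 buffer. Signals were normalised to baseline and to non-cleaving reference variants before per-tile medians were fit to one- or two-exponential decays to yield kobs. Weighted Michaelis–Menten fits across concentrations gave kcat and KM.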

[2] = variants of: B1; assay: KM; higher = weaker cofactor use; RNA array
Outline: as §1

[3] = variants of: B1; assay: self-cleavage kobs at 640 uM GlcN6P; higher = faster cleavage; RNA array
Outline: as §1

[4] = variants of: B1; assay: self-cleavage kobs at 2500 uM GlcN6P; higher = faster cleavage; RNA array
Outline: as §1

[5] = variants of: B1; assay: self-cleavage kobs at 10000 uM GlcN6P; higher = faster cleavage; RNA array
Outline: as §1

[6] = variants of: B1; assay: self-cleavage kobs at 40 uM GlcN6P; higher = faster cleavage; RNA array
Outline: as §1

[7] = variants of: B1; assay: self-cleavage kobs at 160 uM GlcN6P; higher = faster cleavage; RNA array
Outline: as §1

Row | Variant | kcat [1] [s⁻¹] | KM [2] [µM] | self-cleavage kobs at 640 uM GlcN6P [3] [s⁻¹] | self-cleavage kobs at 2500 uM GlcN6P [4] [s⁻¹] | self-cleavage kobs at 10000 uM GlcN6P [5] [s⁻¹] | self-cleavage kobs at 40 uM GlcN6P [6] [s⁻¹] | self-cleavage kobs at 160 uM GlcN6P [7] [s⁻¹]
1 | A42U U55A | 0.000213 ± 6.1e-06 | 1260 ± 86 | 7.19e-05 ± 1.1e-05 | 0.000143 ± 2.6e-05 | 0.000188 ± 2.2e-05 |  | 
2 | G40A U65G | 0.00247 ± 0.00015 | 2990 ± 340 | 0.000421 ± 0.0001 | 0.00107 ± 0.00028 | 0.00192 ± 0.00028 | 3.72e-05 ± 1.4e-05 | 
3 | G40A U65A | 0.00131 ± 0.0003 | 2690 ± 980 | 0.000213 ± 4.3e-05 | 0.000615 ± 0.00011 | 0.00106 ± 0.00012 | 3.89e-05 ± 8.4e-06 | 7.08e-05 ± 1.3e-05
4 | U45G U55A | 0.00686 ± 0.00089 | 1800 ± 330 | 0.00187 ± 0.00028 | 0.00385 ± 0.00058 | 0.00606 ± 0.0012 | 0.000186 ± 4e-05 | 0.000513 ± 7.7e-05
5 | A48U U49G | 1.55e-05 ± 3.7e-06 |  |  |  |  | < 1e-05 | 
6 | U46C U47A | 0.00433 ± 0.002 |  | 0.000719 ± 0.00017 | 0.00311 ± 0.0008 | 0.00365 ± 0.001 | 9.34e-05 ± 1.5e-05 | 
7 | U45C C70U | 0.0085 ± 0.0033 | 4580 ± 2200 | 0.000855 ± 0.00011 | 0.00283 ± 0.00041 | 0.00646 ± 0.00093 | 0.000103 ± 1.3e-05 | 0.000303 ± 4.5e-05
8 | U47C U56G | 0.00245 ± 0.00054 | 1580 ± 540 | 0.000708 ± 8.7e-05 | 0.00108 ± 0.00025 | 0.00243 ± 0.0003 | 7.97e-05 ± 1.3e-05 | 0.000196 ± 4e-05
9 | U46C U54G | 0.00333 ± 0.00031 | 1370 ± 200 | 0.000997 ± 0.00031 | 0.00284 ± 0.00085 | 0.00287 ± 0.0004 | 9.45e-05 ± 1.5e-05 | 
10 | U46A G66A | 0.000792 ± 5.9e-05 | 2830 ± 440 | 0.000156 ± 3.3e-05 | 0.000321 ± 8.6e-05 | 0.00063 ± 7.9e-05 |  | 
11 | G44A U54A | 0.000692 ± 0.00012 | 2530 ± 870 | 0.000132 ± 3.9e-05 | 0.00051 ± 0.0002 | 0.000538 ± 0.00011 |  | 
12 | G44A U54C | 0.00159 ± 0.00015 | 8260 ± 990 | 0.000114 ± 1.7e-05 | 0.000372 ± 6.7e-05 | 0.000869 ± 0.00017 |  | 
13 | G41U U55C | 0.000532 ± 8.1e-05 | 4870 ± 1100 | 6.02e-05 ± 7.7e-06 | 0.000181 ± 2e-05 | 0.000359 ± 5.4e-05 |  | 3.13e-05 ± 1.4e-05
14 | U45G C67A | 0.00845 ± 0.0014 | 2670 ± 590 | 0.00177 ± 0.00033 | 0.00369 ± 0.001 | 0.00674 ± 0.0011 | 0.000114 ± 1.8e-05 | 0.000663 ± 0.00016
15 | U45C U54A | 0.00783 ± 0.0023 | 6680 ± 2400 | 0.00072 ± 0.00011 | 0.00255 ± 0.00053 | 0.00436 ± 0.001 |  | 0.000161 ± 3.3e-05
16 | U47G U65C | 0.000283 ± 6.3e-05 |  | 7.88e-05 ± 2.3e-05 | 0.000316 ± 6.8e-05 | 0.000232 ± 3.5e-05 |  | 
17 | A48U U55C | 0.000437 ± 6.5e-05 | 2190 ± 650 | 0.000116 ± 2.5e-05 | 0.000214 ± 3.6e-05 | 0.000378 ± 6.8e-05 |  | 
18 | U46A G60A | < 1e-05 |  | < 1e-05 |  |  |  | 
19 | U45G U65G | 0.00365 ± 0.0011 | 2200 ± 1000 | 0.000639 ± 0.00024 | 0.00296 ± 0.00091 | 0.00282 ± 0.00077 | 7.22e-05 ± 2.1e-05 | 
20 | G40U U46C | 0.00175 ± 0.00024 | 2420 ± 530 | 0.000365 ± 5e-05 | 0.000971 ± 0.00014 | 0.00137 ± 0.00016 | 4.23e-05 ± 1.1e-05 | 9.14e-05 ± 1.9e-05
21 | A48U C71U | 0.000562 ± 8.4e-05 | 1890 ± 590 | 0.000153 ± 2.3e-05 | 0.000338 ± 5.6e-05 | 0.000461 ± 5.6e-05 |  | 
22 | G41C U54C | 0.000229 ± 4e-05 |  | 0.000132 ± 2.8e-05 | 0.000162 ± 3.3e-05 | 0.000204 ± 2.4e-05 |  | 
23 | G41U G66A | 0.00293 ± 0.00055 | 1820 ± 560 | 0.000701 ± 0.00023 | 0.00141 ± 0.00028 | 0.00299 ± 0.00054 | 7.21e-05 ± 1.7e-05 | 0.000253 ± 7.9e-05
24 | G44C U54G | 0.000124 ± 1.2e-05 | 1200 ± 330 | 4.75e-05 ± 1.2e-05 | 7.38e-05 ± 1.6e-05 | 0.000118 ± 1.9e-05 |  | 
25 | G41C A42U | 4.23e-05 ± 1.3e-06 | 1050 ± 290 |  |  | 3.82e-05 ± 6.7e-06 |  | < 1e-05
26 | G41C A42G | 0.00017 ± 1e-05 | 1210 ± 190 | 6.25e-05 ± 1e-05 | 0.000107 ± 1.5e-05 | 0.000158 ± 1.9e-05 |  | 
27 | G41U A53C | 0.000167 ± 4e-05 |  | 5.64e-05 ± 1.2e-05 | 7.23e-05 ± 9.5e-06 | 0.000139 ± 1.2e-05 | < 1e-05 | 
28 | U47C C70G | 0.000161 ± 3.3e-05 |  | 0.000172 ± 3.5e-05 | 0.00012 ± 3e-05 | 0.000256 ± 0.0001 |  | 7.93e-05 ± 2.2e-05
